Biological target: platelet membrane actin (human (endogenous in platelets)) (UniProt P60709)
Assay: SEC

percent of surface GPIIb and III associated with the actin-rich void volume peak: > 85%
Substance: glycoprotein IIb, form in the Triton X-100-insoluble fraction of platelet plasma membranes (natural protein)

Reference: publication PMC2113458
